Patent US20020146411A1, “Anticoagulant agents useful in treatment of thrombosis” (SmithKline Beecham Corporation, priority 1996, published 2002)
Numbering of substitutions follows the chain as printed. Values belong to the binder of their own block, whether it stands above or below them.

Tests used:
[1] = target: human Factor IX (human) (UniProt P00740); assay: cell-based or functional assay
[2] = target: recombinant human Factor IX (rhFIX, Genetics Institute) (human) (UniProt P00740); assay: isothermal titration calorimetry
Sequence of recombinant human Factor IX (rhFIX, Genetics Institute) (human) (P00740 47-461 limits assumed): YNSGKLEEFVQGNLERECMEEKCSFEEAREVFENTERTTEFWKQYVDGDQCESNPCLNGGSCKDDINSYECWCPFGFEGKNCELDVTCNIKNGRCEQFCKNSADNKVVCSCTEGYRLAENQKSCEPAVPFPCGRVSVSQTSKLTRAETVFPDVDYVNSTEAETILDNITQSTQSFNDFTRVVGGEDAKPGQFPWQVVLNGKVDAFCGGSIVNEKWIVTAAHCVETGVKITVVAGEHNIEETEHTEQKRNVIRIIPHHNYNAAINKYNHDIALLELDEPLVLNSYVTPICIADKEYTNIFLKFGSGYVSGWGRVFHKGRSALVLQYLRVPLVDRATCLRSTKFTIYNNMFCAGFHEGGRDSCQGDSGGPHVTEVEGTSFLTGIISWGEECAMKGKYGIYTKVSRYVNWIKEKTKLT

[3] = target: recombinant human Factor IX (rhFIX, Genetics Institute) (human) (UniProt P00740); assay: titration microcalorimetry, 106 uM FIX injected into 2 uM mAb
[4] = target: recombinant human Factor IX (rhFIX, Genetics Institute) (human) (UniProt P00740); assay: titration calorimetry, 37° C., 10 mM CaCl2
[5] = target: recombinant human Factor IX (rhFIX, Genetics Institute) (human) (UniProt P00740); assay: BIAcore, calculated from kdiss and kass
[6] = target: recombinant human Factor IX (rhFIX, Genetics Institute) (human) (UniProt P00740); assay: biosensor (BIAcore)
[7] = target: recombinant human Factor IX (rhFIX, Genetics Institute) (human) (UniProt P00740); assay: BIAcore, antibody captured on immobilised protein A, rhFIX at 49 nM, 5 mM Ca2+
[8] = target: recombinant human Factor IX (rhFIX, Genetics Institute) (human) (UniProt P00740); assay: titration calorimetry
[9] = target: recombinant human Factor IX (rhFIX, Genetics Institute) (human) (UniProt P00740); assay: isothermal titration calorimetry, 25° C.
[10] = target: recombinant human Factor IX (rhFIX, Genetics Institute) (human) (UniProt P00740); assay: titration calorimetry, 25° C. (calculated from the van't Hoff equation), 10 mM CaCl2
[11] = target: recombinant human Factor IX (rhFIX, Genetics Institute) (human) (UniProt P00740); assay: BIAcore kinetics of Factor IX binding
[12] = target: recombinant human Factor IX (rhFIX, Genetics Institute) (human) (UniProt P00740); assay: BIAcore, calculated

Sequence of human Factor IX (human) (P00740 47-461 limits assumed): as above

B1: murine anti-Factor IX monoclonal antibody BC2 (antibody, mouse IgG2a, V domains shown)
VH: QIQLVQSGPELKKPGETVKISCKASGYTFTNYGMNWVKQAPGKGLKWMGWINTRNGKSTYVDDFKGRFAFSLESSASTANLQIDNLKDEDTATYFCTREGNMDGYFPFTYWGQGTLVTVSA
VL: QIVLSQSPAILSASPGEKVTMTCRASSSVNYMHWYQQKPGSSPKPWIYATSNLASGVPARFSGSGSGTSYSLTISRVEAEDAATYYCQQWSINPRTFGGGTKLEIKR
IC50, nM (aPTT of human plasma) [1]: 50 nM
aPTT at saturating antibody [1]: 90 s
aPTTmax / aPTTnormal × 100 % [1]: 350%

B2: humanized anti-Factor IX monoclonal antibody SB 249417 (antibody, V domains shown)
VH: QVQLVQSGSELKKPGASVKVSCKASGYTFTNYGMNWVRQAPGQGLKWMGWINTRNGKSTYVDDFKGRFVFSLDSSVSTAYLQISSLKADDTAVYYCTREGNMDGYFPFTYWGQGTLVTVSS
VL: QIVLTQSPSSLSASVGDRVTITCRASSSVNYMHWYQQKPGKAPKPWIYATSNLASGVPSRFSGSGSGTDYTFTISSLQPEDIATYYCQQWSINPRTFGQGTKVEIKR
Stoichiometry of Factor IX Binding (moles Factor IX per mole mAb) [2]: 1.5
molar binding ratio at the equivalence point [3]: 2 FIX per mAb
Kd [4]: 12 nM
Kd [5]: 1.9 nM
Kd [6]: 2 nM
koff [6]: 0.0004 s⁻¹
kon [6]: 200000 M⁻¹ s⁻¹
koff [7]: 0.00041 s⁻¹
kon [7]: 200000 M⁻¹ s⁻¹
Molar Binding Ratio FIX/mAb [8]: 1.5 FIX/mAb
Kd [9]: 4 nM
Kd [10]: 4 nM

B3: humanized anti-Factor IX monoclonal antibody SB 249415 (antibody, V domains shown)
VH: B2 VH
VL: EIVLTQSPATLSLSPGERATLSCRASSSVNYMHWYQQRPGQAPKPWIYATSNLASGVPARFSGSGSGTDFTLTISSLEPEDFAVYYCQQWSINPRTFGGGTKVEIKR
Kd [4]: 7 nM
koff [11]: 0.00018 s⁻¹
kon [11]: 750000 M⁻¹ s⁻¹
Molar Binding Ratio FIX/mAb [8]: 1.7 FIX/mAb
Kd [10]: 3 nM
Kd [12]: 1.1 to 2.3 nM

B7: humanized anti-Factor IX monoclonal antibody SB 249413 (antibody, V domains shown)
VH: B2 VH with K46E, S74T, T97A
VL: B3 VL with K44R, P45L, W46L, V57I
Kd [4]: 12 nM
koff [11]: 0.0028 s⁻¹
kon [11]: 650000 M⁻¹ s⁻¹
Molar Binding Ratio FIX/mAb [8]: 1.9 FIX/mAb
Kd [10]: 6 nM
Kd [12]: 3.7 to 5.1 nM

Continued by falling Kd [12], values first:

Kd [4]: 9 nM
koff [11]: 0.0012 s⁻¹
kon [11]: 1.1e+06 M⁻¹ s⁻¹
Molar Binding Ratio FIX/mAb [8]: 1.8 FIX/mAb
Kd [10]: 4 nM
Kd [12]: 1.5 nM
B4: humanized anti-Factor IX monoclonal antibody SB 257732 (antibody, V domains shown)
VH: B2 VH with V2I, K46E, S74T, D89E, Y95F
VL: B2 VL with F72L, I82F, Q99G, V103L

koff [11]: 0.00099 s⁻¹
kon [11]: 920000 M⁻¹ s⁻¹
Kd [12]: 1.1 nM
B6: humanized anti-Factor IX monoclonal antibody SB 257731 (antibody, V domains shown)
VH: B2 VH
VL: QIVLTQSPATLSLSPGERATLSCRASSSVNYMHWYQQRPGQAPKPWIYATSNLASGVPARFSGSGSGTDYTLTISSLEPEDFAVYYCQQWSINPRTFGGGTKVEIK

koff [11]: 0.00041 s⁻¹
kon [11]: 520000 M⁻¹ s⁻¹
Kd [12]: 0.8 nM
B5: humanized anti-Factor IX monoclonal antibody SB 249416 (antibody, V domains shown)
VH: B2 VH
VL: B3 VL with F70Y
